B1: CDC25A (parent)
chain: QLIDPDENKENEAFEFKKPVRPVS

For 94 variants, protein stability index results are on record in the supplement of paper PMC10567573.
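Note: lentivirally expressed fusions sorted by FACS into six bins by GFP to DsRed ratio, PSI derived from sequencing read proportions per bin multiplied by bin number.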

This data set covers variants of B1. Put plainly: protein stability index of a GFP-peptide fusion (GPS, HEK-293T) (PSI 1-6); higher = more stable. The settings on record: c terminus: a fixed tail appended.
Regarding QLIDPDENKENQAFEFKKPVRPVS, the protein stability index amounted to 3.85.

Take QLIDPDENKENHAFEFKKPVRPVS: the protein stability index was 3.21. Then QLIDPDENKENTAFEFKKPVRPVS, with 3.94.

For QLIDPDENKENWAFEFKKPVRPVS, the protein stability index worked out at 3.19. QLIDPDENKENYAFEFKKPVRPVS: the protein stability index turned out to be 3.38. Then QLIDPDENKENGAFEFKKPVRPVS, with 4.61; and QLIDPDENKENCAFEFKKPVRPVS, with 3.55. As for QLIDPDENKENAAFEFKKPVRPVS, the protein stability index was found to be 3.34. Then QLIDPDENKENIAFEFKKPVRPVS, with 3.34. For QLIDPDENKENMAFEFKKPVRPVS, the protein stability index was found to be 2.78.

For QLIDPDENKENNAFEFKKPVRPVS, the protein stability index came to 3.27.

Take QLIDPDENKENPAFEFKKPVRPVS: the protein stability index stood at 4.17. Then QLIDPDENKENLAFEFKKPVRPVS, with 3.56; and QLIDPDENKENFAFEFKKPVRPVS, with 2.87; and QLIDPDENKENSAFEFKKPVRPVS, with 4.16. Consider QLIDPDENKENRAFEFKKPVRPVS, for which the protein stability index is 3.1. With QLIDPDENKENVAFEFKKPVRPVS the figure was 3.36. Take QLIDPDENKENKAFEFKKPVRPVS: the protein stability index came to 3.84. With QLIDPDENKELEAFEFKKPVRPVS, the protein stability index amounted to 4.65. QLIDPDENKEWEAFEFKKPVRPVS: the protein stability index came out at 4.02.

In the case of QLIDPDENKESEAFEFKKPVRPVS, the protein stability index was 4.22. In the case of QLIDPDENKEAEAFEFKKPVRPVS, the protein stability index turned out to be 3.81. Consider QLIDPDENKEFEAFEFKKPVRPVS, for which the protein stability index worked out at 4.02.

For QLIDPDENKEIEAFEFKKPVRPVS, the protein stability index stood at 4.53. With QLIDPDENKEMEAFEFKKPVRPVS, the protein stability index was 4.25. With QLIDPDENKEPEAFEFKKPVRPVS the figure was 4.49; with QLIDPDENKEVEAFEFKKPVRPVS, 4.63.

In the case of QLIDPDENKEDEAFEFKKPVRPVS, the protein stability index came to 4.68. As to QLIDPDENKEKEAFEFKKPVRPVS, the protein stability index is 4.56.

QLIDPDENKEYEAFEFKKPVRPVS: the protein stability index is 4.29.

In the case of QLIDPDENKEQEAFEFKKPVRPVS, the protein stability index worked out at 4.32. Turning to QLIDPDENKEEEAFEFKKPVRPVS, the protein stability index worked out at 4.22.

Take QLIDPDENKECEAFEFKKPVRPVS: the protein stability index amounted to 4.23. Take QLIDPDENKETEAFEFKKPVRPVS: the protein stability index came to 4.99. For QLIDPDENKENEAFEAKKPVRPVS, the protein stability index came out at 4.03. QLIDPDENKWNEAFEFKKPVRPVS: the protein stability index worked out at 4.02. With QLIDPDENKVNEAFEFKKPVRPVS the figure was 3.36; with QLIDPDENKYNEAFEFKKPVRPVS, 4.78. On to QLIDPDENKENEAPEFKKPVRPVS, for which the protein stability index amounted to 4.92. For QLIDPDENKENEAIEFKKPVRPVS, the protein stability index worked out at 4.04. As for QLIDPDENKENEAREFKKPVRPVS, the protein stability index is 3.79. As for QLIDPDENKENEATEFKKPVRPVS, the protein stability index came to 3.73.

In the case of QLIDPDENKENEAVEFKKPVRPVS, the protein stability index amounted to 4.55.

Consider QLIDPDENKENEADEFKKPVRPVS, for which the protein stability index was 5.04. Consider QLIDPDENKENEAYEFKKPVRPVS, for which the protein stability index stood at 4.12. As to QLIDPDENKENEANEFKKPVRPVS, the protein stability index turned out to be 3.98. Turning to QLIDPDENKENEAWEFKKPVRPVS, the protein stability index came out at 3.2. Turning to QLIDPDENKENEAHEFKKPVRPVS, the protein stability index came to 4.42. Then QLIDPDENKENEAKEFKKPVRPVS, with 5; and QLIDPDENKENEAMEFKKPVRPVS, with 3.8. As to QLIDPDENKENEAQEFKKPVRPVS, the protein stability index is 3.94. As for QLIDPDENKENEAAEFKKPVRPVS, the protein stability index was 4.68.

For the variant QLIDPDENKENEASEFKKPVRPVS, the protein stability index turned out to be 4.5.

Take QLIDPDENKENEAEEFKKPVRPVS: the protein stability index worked out at 4.78. Then QLIDPDENKENEAGEFKKPVRPVS, with 4.53; and QLIDPDENKENEACEFKKPVRPVS, with 4.55. With QLIDPDENKENEALEFKKPVRPVS the figure was 4.21.

Turning to QLIDPDENKENESFEFKKPVRPVS, the protein stability index was found to be 3.85. With QLIDPDENKENEDFEFKKPVRPVS the figure was 4.34. Regarding QLIDPDENKENEQFEFKKPVRPVS, the protein stability index turned out to be 4.02. Turning to QLIDPDENKENEGFEFKKPVRPVS, the protein stability index worked out at 3.71. Consider QLIDPDENKENEHFEFKKPVRPVS, for which the protein stability index was found to be 3.26.

On to QLIDPDENKENEPFEFKKPVRPVS, for which the protein stability index amounted to 4.25. With QLIDPDENKENELFEFKKPVRPVS the figure was 3.73; with QLIDPDENKENEMFEFKKPVRPVS, 4.11; with QLIDPDENKENEIFEFKKPVRPVS, 4.23. With QLIDPDENKENETFEFKKPVRPVS, the protein stability index came to 3.9.

Take QLIDPDENKENEVFEFKKPVRPVS: the protein stability index was 2.88. In the case of QLIDPDENKENEFFEFKKPVRPVS, the protein stability index came to 3.02. As to QLIDPDENKENEEFEFKKPVRPVS, the protein stability index came to 3.57. Then QLIDPDENKENERFEFKKPVRPVS, with 3.24; and QLIDPDENKENEKFEFKKPVRPVS, with 3.63; and QLIDPDENKENEWFEFKKPVRPVS, with 3.02. As for QLIDPDENKENECFEFKKPVRPVS, the protein stability index came to 3.52.

As to QLIDPDENKENEYFEFKKPVRPVS, the protein stability index was found to be 3.99.

For the variant QLIDPDENKENENFEFKKPVRPVS, the protein stability index worked out at 3.77. On to QLIDPDENKENEAFSFKKPVRPVS, for which the protein stability index is 4. Turning to QLIDPDENKENEAFQFKKPVRPVS, the protein stability index is 4.08. Take QLIDPDENKENEAFLFKKPVRPVS: the protein stability index was found to be 3.36. For the variant QLIDPDENKENEAFIFKKPVRPVS, the protein stability index was 3.7. As to QLIDPDENKENEAFWFKKPVRPVS, the protein stability index was determined as 3.54. Consider QLIDPDENKENEAFPFKKPVRPVS, for which the protein stability index is 4.16. With QLIDPDENKENEAFTFKKPVRPVS, the protein stability index was found to be 3.92. Then QLIDPDENKENEAFFFKKPVRPVS, with 3.41; and QLIDPDENKENEAFHFKKPVRPVS, with 3.57; and QLIDPDENKENEAFYFKKPVRPVS, with 3.02. Consider QLIDPDENKENEAFAFKKPVRPVS, for which the protein stability index was determined as 4.01.

QLIDPDENKENEAFRFKKPVRPVS: the protein stability index came to 2.37.

As for QLIDPDENKENEAFGFKKPVRPVS, the protein stability index was 2.89.

Turning to QLIDPDENKENEAFVFKKPVRPVS, the protein stability index stood at 3.36.

Turning to QLIDPDENKENEAFDFKKPVRPVS, the protein stability index was found to be 3.77. On to QLIDPDENKENEAFMFKKPVRPVS, for which the protein stability index is 4.37.

Consider QLIDPDENKENEAFKFKKPVRPVS, for which the protein stability index was determined as 4.3. As for QLIDPDENKENEAFNFKKPVRPVS, the protein stability index was 3.13.
